{
  "source": "paper PMC6308316",
  "about": "“Characterization of a Putrescine Transaminase From Pseudomonas putida and its Application to the Synthesis of Benzylamine Derivatives” (Frontiers in Bioengineering and Biotechnology, 2018)",
  "target": "the molecule itself",
  "assay": "crystal structure; apo Pp-SpuC; crystals in 0.2 M MgCl2, 0.1 M Bis-Tris pH 6.5, 25% PEG3350, 20°C; two monomers in the asymmetric unit",
  "data": [
    {"protein": "putrescine transaminase from Pseudomonas putida (Pp-SpuC) (enzyme, putrescine transaminase SpuC of Pseudomonas putida (strain NBRC 14161 bought from NCIMB), cloned in pET-28b as in Galman et al., 2017; in the crystal residues 1-33, 154-179 and 313-324 are disordered; No cleavage of the tag is told; Crystallised in the apo form (no PLP seen); also called putrescine transaminase spuC; source: E. coli BL21 (DE3), pET28b, purified (Ni-NTA, ion exchange on …)) MSTNNPQTREWQTLSGEHHLAPFSDYKQLKEKGPRIITKAQGVHLWDSEGHKILDGMAGLWCVAVGYGREELVQAAEKQMRELPYYNLFFQTAHPPALELAKAITDVAPEGMTHVFFTGSGSEGNDTVLRMVRHYWALKGKPHKQTIIGRINGYHGSTFAGACLGGMSGMHEQGGLPIPGIVHIPQPYWFGEGGDMTPDAFGIWAAEQLEKKILEVGEDNVAAFIAEPIQGAGGVIIPPETYWPKVKEILAKYDILFVADEVICGFGRTGEWFGSDYYDLKPDLMTIAKGLTSGYIPMGGVIVRDKVAKVISEGGDFNHGFTYSGHPVAAAVGLENLRILRDEQIVEKARTEAAPYLQKRLRELQDHPLVGEVRGLGMLGAIELVKDKATRSRYEGKGVGMICRTFCFENGLIMRAVGDTMIIAPPLVISHAEIDELVEKARKCLDLTLEAIR", "values": [
      {"measurement": "stoichiometry N", "result": 2}
    ]}
  ]
}
